Reference: patent CN115093478A

Target: 天然CHIKV-E2蛋白 (Chikungunya virus (Ross株))

B1: 2A2-E10(HRP) (antibody, V domains shown)
VH: EVQLVESGGGLVQPKGSLKLSCAASGFTHNTYNMNWVRQAPGKGLEWVARIRSGSNMYATYYADSVKDRFTISRDDSQSILYLQMNNLKTEDTVMYYCERPDYSGSSYFDYWGQGTTLTVSS
VL: DIQLTQPPSYLAASPGETITINCRASKSYSKYCLAWYQEKPGKTNKLLIYSGSTLQSGIPSRFSGSGSGTDFTLTISSLEPEDFAMYYCQQGNMYPYTFGGGTKLEIK
For B1, which DAS-ELISA检测灵敏度 is on record?
The DAS-ELISA检测灵敏度 was 1e+06 PFU/mL.
